Measurements: US20140369997A1, “Pharmaceutical composition for a foaming eye drop” (PASE, priority 2011, published 2014)

Assay: Foaming of eye drop solution containing a foaming agent mixed with gas
Assay type: physicochemical
Excerpt: The preferred embodiment is a solution containing between 0.25%-5% of hydroxypropyl methylcellulose. This has been proven to produce a foam that is capable of holding enough gas to result in a 90% reduction in volume of the medication distributed in a drop. In other words the foam that is created is 90% gas and 10% liquid. The addition of hydroxypropyl methylcellulose is one of many ways that the pharmaceutical composition of the eye medication can be changed.
Any preferred additive should have properties similar to hydroxypropyl methylcellulose such that a large reduction in volume of liquid from the foamed form to the liquid form is obtained. The additive should be chosen to reduce the risk of eye irritation and to minimize any potential binding of the active ingredient. Hydroxypropyl methylcellulose is especially preferred because it is already known to be a safe ingredient to be applied to the eye as it is currently used in many eye drops to lubricate the eye. It also produces a more viscous solution which increases the retention time in the eye, thus giving the medication more time to be absorbed.

albumin
consistency of foam produced (albumin concentration between 1%-25%): foam of the desired consistency
foaming agent quality (tested as foaming agent): excellent foaming agent
